According to patent US20190153078A1 (Sanofi, published 2019):
Changes are numbered by the printed parent chain. Read-outs that look alike come from different tables or passages of the source.

B1: B5 antibody (antibody, V domains shown)
VH: QVHLQESGPGLVKPSGTLSLTCAVSGGSISYTNWWSWVRLPPGKGLEWIGEIYHSRSTNYNPSLKSRVTMSIDKSKNLFSLKLNSVTAADTAIYYCAKAAYTRDGIQPFDNWGQGTLVTVSS
VL: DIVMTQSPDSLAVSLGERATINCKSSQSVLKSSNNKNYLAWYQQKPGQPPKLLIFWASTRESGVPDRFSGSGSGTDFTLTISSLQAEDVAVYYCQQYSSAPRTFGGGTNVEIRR
B2: B1 antibody (antibody, V domains shown)
VH: EVQLVESGGGLVQPGGSLRLSCAASGFTFRSYWMHWVRQVPGKGLVWVSCINKEGSSTTYADSVKGRFTISRDNAKNTLYLEMNSLRADDTAVYYCLRGYDVDYWGQGTLVTVSS
VL: QAVLTQPSSLSASPGASVSLTCTLRSGINVGTYRIYWYQQKPGSPPRYLLRYKSGLDKHQGSGVPSRFSGSKDDSANAGILFISGLQSEDEADYYCLIWHSSAVVFGGGTKLTVLG
B3: B3 antibody (antibody, V domains shown)
VH: B2 VH with A23S, E82Q
VL: B2 VL with I28V, T32S, D90N, E91D, S101N
B4: A3 antibody (antibody, V domains shown)
VH: MQLLESGGGLVKPGGSLRLSCAASGFTFSNAWMSWVRQGPGKGLEWVGRIKSKTDGGTTDYAAPVKGRFSISRNDSNNTLFLQMNSLKTEDTAVYYCTTGPQIVVVAGATSRDQPNYYYYGLDVWGLGTTVTVSS
VL: QSVLTQPPSASGTPGQRVTISCSGSSSNIGINTVNWYQQLPGTAPKLLIYKSNLRPSGVPDRFSGSKSGTSASLAISGLRSEDEADYYCAAWDDSLTGLYVFGTGTKVTVLG
B5: A1 antibody (antibody, V domains shown)
VH: QVHLQESGPGLVKPSETLSLTCTVSGDSISTYYWSWIRQPPGKGLEWIGYVYYTGSTNYSPSLEGRVTLSVDTSKNQFSLKLNSVSAADTAVYYCARGAAEWLRFRGFFDYWGQGILVSVSS
VL: EVVLTQSPGTLSLSPGERATLSCRASQSVTNGFLAWYQQKPGQAPRVLIYGASSRATGIPDRFSGSGSGTDFTLTISRLEPEDFAMYYCQQYGLSGTFGQGTKLEIKR
B6: A2 antibody (antibody, V domains shown)
VH: QVQLQESGPGLVKPSETLSLTCTVSGGSISTYYWSWIRQSPGKGLEWMGYIYYSGSTNYNPSLESRVTIAVDTSKNQFSLQLTSVTAADTAVYYCARGAAEWLRFRGFFDSWGQGTLVTVSS
VL: B5 VL with V2N, Q27H, G32N, V47L, A52V, M86V, L94V
B7: B4 antibody (antibody, V domains shown)
VH: EVQLVESGGGLVKPGGSLRVSCAASGFTFSSYSMNWIRQAPGKGLEWVSSISSNSSYIYYADSVKGRFTISRDNAKNSLYLQMNSLRAEDTAVYYCARDRDYSNYLTAWGQGTLVTVSS
VL: QSVLTQPPSVSGAPGQRVTISCTGSSSNIGAGYDVHWYRQLPGTAPKLLIYGKNNRPSGVPNRFSGSKSGTSASLAITGLQAEDEADYYCQSYDSSLSGSVFGGGTKLTVLG
B8: A4 antibody (antibody, V domains shown)
VH: QVHLVESGGGVVQPGRSLRLSCATFGLNFSDYGFHWVRQAPGKGLEWVAVTSYDGSNKYYAEFVKGRFTISRDNYKNTVYLQMNSLRLEDTAVYYCARDLAPYNFWSGYGNNWFDPWGQGTLVTVSS
VL: EIVLTQSPGTLSLSPGERATLSCRASQSVTGTSLAWFQQKPGQAPRLLIYGASSRATGIPDRFSGSGSGTDFTLTISRLEPEDFAVYYCQQYGSSPRLTFGGGTKVEIKR
B9: A5 antibody (antibody, V domains shown)
VH: B8 VH
VL: EIVMTQSPATLSVSPGERATLSCRASQSISSNLAWYQQKPGQAPRLLIYDASTRATGIPARFSGSGSGTEFTLTISSLQSEDFAVYYCQQYNDWLVTFGQGTKVEIKR
B10: B6 antibody (antibody, V domains shown)
VH: EVQLVESGGGLVQPGGSLRLSCAASGFTFTTSTMNWVRQAPGKGLEWVSYITRTSTVIYYADSVKGRFTISRDNAKNSLYLQMSSLRAEDTAVYYCARGVRDIGGNGFDYWGQGTLVTVSS
VL: B8 VL with G31S, T32S, S33Y, F37Y, P41T, S77A, R97P, L98Y, G102Q, V106L

How the values were obtained:
[1] = biological target: T1, C. difficile toxin B from strain VPI10463 (ATCC 43255), toxinotype 0 (Clostridium difficile, UniProt P18177 2-2366); assay: cell-based or functional assay
[2] = biological target: T1, C. difficile toxin B from strain …; assay: BLI (Octet Red96), antibody on Protein A sensor, toxin in solution
[3] = biological target: T1, C. difficile toxin B from strain …; assay: cell-based or functional assay; remark: listed apart in the source
[4] = biological target: Mutant Toxin B MLD (1-91) + LPETGG + 6X HIS (Clostridium difficile); assay: BLI (Octet RED96)
[5] = biological target: T2, WT Toxin B MLD (1-91) + LPETGG + 6X HIS (Clostridium difficile); assay: Western, dot blot, Octet (summary)
[6] = biological target: T2, WT Toxin B MLD (1-91) + LPETGG + 6X HIS; assay: BLI (Octet RED96)
[7] = biological target: T3, C. difficile toxin A from strain VPI10463 (ATCC 43255), toxinotype 0 (Clostridium difficile, UniProt P16154 1-2710); assay: cell-based or functional assay
[8] = biological target: T3, C. difficile toxin A from strain …; assay: BLI (Octet Red96), antibody on Protein A sensor, toxin in solution
[9] = biological target: T3, C. difficile toxin A from strain …; assay: cell-based or functional assay; remark: listed apart in the source
[10] = biological target: T3, C. difficile toxin A from strain …
[11] = biological target: T1, C. difficile toxin B from strain …

Row | Binder | % completion TEER (T-84 cells) [1] | TEER NT50 (T-84 cells) [1] | Kd [2] | koff [2] | kon [2] | % completion cytotox (Vero cells) [3] | Cytotox NT50, pM (Vero cells) [3] | binding result [4] | binding result [5] | binding result [6] | % completion TEER (T-84 cells) [7] | TEER NT50, nM (T-84 cells) [7] | Kd [8] | koff [8] | kon [8] | % completion cytotox (Vero cells) [9] | Cytotox NT50, pM (Vero cells) [9] | Kd [10] | Kd [11]
1 | B1 | 70% | 200 | 0.202 nM | 9.62e-05 s⁻¹ | 477000 M⁻¹ s⁻¹ | 95% | 2900 pM | – | – | – | – | – | – | – | – | – | – | – | –
2 | B2 | 91% | 270 | 0.0477 nM | 2.79e-05 s⁻¹ | 585000 M⁻¹ s⁻¹ | 95% | 49 pM | no binding | no binding | – | – | – | – | – | – | – | – | – | –
3 | B3 | 95% | 600 | 0.487 nM | 9.4e-05 s⁻¹ | 193000 M⁻¹ s⁻¹ | 100% | 100 pM | no binding | – | no binding | – | – | – | – | – | – | – | – | –
4 | B4 | – | – | – | – | – | – | – | – | – | – | 80% | 1.3 nM | 0.461 nM | 7.77e-05 s⁻¹ | 169000 M⁻¹ s⁻¹ | 90% | 980 pM | – | –
5 | B5 | – | – | – | – | – | – | – | – | – | – | 80% | < 1.3 nM | < 0.01 nM | < 3.75e-06 s⁻¹ | 375000 M⁻¹ s⁻¹ | < 90% | 48 pM | – | –
6 | B6 | – | – | – | – | – | – | – | – | – | – | 75% | 1.8 nM | 0.00443 nM | 1.58e-06 s⁻¹ | 356000 M⁻¹ s⁻¹ | 100% | 55 pM | < 0.01 nM | –
7 | B7 | 93% | 130 | 0.121 nM | 6.44e-05 s⁻¹ | 531000 M⁻¹ s⁻¹ | – | – | – | – | – | – | – | – | – | – | – | – | – | –
8 | B8 | – | – | – | – | – | – | – | – | – | – | – | 4.7 nM | 0.000557 nM | 3.09e-07 s⁻¹ | 555000 M⁻¹ s⁻¹ | < 90% | 3400 pM | < 0.01 nM | –
9 | B9 | – | – | – | – | – | – | – | – | – | – | – | 7.3 nM | 0.144 nM | 4.49e-05 s⁻¹ | 312000 M⁻¹ s⁻¹ | 75% | 2700 pM | – | –
10 | B10 | 92% | 100 | 0.000726 nM | 5.3e-07 s⁻¹ | 730000 M⁻¹ s⁻¹ | – | – | – | – | – | – | – | – | – | – | – | – | – | < 0.01 nM
